Assay results from patent publication US20230064703A1.

B1: chimeric antibody 45F1F3 (human IgG1) (antibody, V domains shown)
VH: DVQLQESGPGLVKPSQSLSLTCTVTGYSITIDYAWNWIRQFPGNKLEWMGYISNSGYTSYNPSLKSRISFTRDTSKNQFFLQLNSVTPEDSATYYCTRSGHYDLFDYWGQGTTLTVSS
VL: DVVMTQAPLTLSVTIGQPASISCKSSQSLFDRDGKTYLSWLLERPGQSPKRLIYLVSNLDSGVPDRFTGSGSGTDFTLKISRVEAEDLGVYYCWQGTHFPYTFGGGTKVEMKR
B2: humanized antibody 225H7D12 VH1.4 + VL1.2 (antibody, V domains shown)
VH: QVQLVQSGAEVKKPGASVKVSCKTTGYRFTGYWIEWVKQAPGQGLEWIGEILPGSGVSNNNEKFRDRATFTADTSINTAYMELSRLRSDDTAVYYCARKASYYTMDYWGQGTLVTVSS
VL: DIQMTQSPSSLSASVGDRVTITCTASSSVSSFYFHWYQQKPGKAPKLWIYSISNLASGVPSRFSGSGSGTSYTLTISSLQPEDFATYYCHQYHRSPRTFGGGTKLEIK
B3: chimeric antibody 225H7D12 (human IgG1) (antibody, V domains shown)
VH: QVQLQQSGAEVMKPGASVKLSCKTTGYRFTGYWIEWVKQRPGHGLEWIGEILPGSGVSNNNEKFRDKATFTADTSSNTAYIQLSSLTTDDSAIYYCARKASYYTMDYWGQGTSVTVSS
VL: QIVLTQSPAIMSASLGERVTMTCTASSSVSSFYFHWYQQKPGSSPKLWIYSISNLASGVPTRFSGSGSGTSYSLTISSMEAEDAATYYCHQYHRSPRTFGGGTKLEIKR

Tests used:
[1] = target: human GITR expressed on Cho-K1 cells (human) (UniProt Q9Y5U5); test: FACS, chimeric antibody on GITR/Cho-K1 cells, geometric mean, 4-parameter fit
[2] = target: human GITR expressed on Cho-K1 cells (human) (UniProt Q9Y5U5); test: FACS binding assay with GITR/Cho-K1, chimeric antibody
[3] = target: human GITR expressed on Cho-K1 cells (human) (UniProt Q9Y5U5); test: FACS binding assay with GITR/Cho-K1, humanized antibody

human GITR expressed on Cho-K1 cells (human), sequence (Q9Y5U5 26-241): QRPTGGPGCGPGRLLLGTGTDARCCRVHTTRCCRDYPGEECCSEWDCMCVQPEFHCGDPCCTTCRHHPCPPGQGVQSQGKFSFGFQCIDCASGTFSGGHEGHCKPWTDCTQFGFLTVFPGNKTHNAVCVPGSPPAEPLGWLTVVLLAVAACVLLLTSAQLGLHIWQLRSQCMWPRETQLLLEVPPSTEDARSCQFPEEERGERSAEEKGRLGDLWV

Row | Binder | EC50 [1] | EC50 [2] | EC50 [3]
1 | B1 | 0.0443 µg/mL | 0.111 µg/mL | –
2 | B2 | – | – | 0.181 µg/mL
3 | B3 | 0.0566 µg/mL | 0.112 µg/mL | –
